Results reported in publication PMC9127447.

Molecular target: dynamin 2-K562E (baculovirus) (rat)
Assay: not stated; polymerization of recombinant (baculovirus) dynamin 2 with or without Bis-T-23; method in Supplementary Figures S2E, F

For dynamin 2-K562E (baculovirus) (enzyme), the fold increase of polymerization with Bis-T-23 against without Bis-T-23 was 3.5 times.
